Test results as given in patent US10787640B2, “Producing mesodermal cell types and methods of using the same” (The Board of Trustees of the Leland Stanford Junior …, priority 2015, dated 2020).

B1: Activin: TGFβ agonist (protein, UniProt P08476 311-426, looked up)
Inhibin beta A chain: GLECDGKVNICCKKQFFVSFKDIGWNDWIIAPSGYHANYCEGECPSHIAGTSGSSLSFHSTVINHYRMRGHSPFANLKSCCVPTKLRPMSMLYYDDGQNIIKKDIQNMIVEECGCS
modifications: Inhibin beta A chain
notes: TGFβ agonist
B2: BMP4: BMP family ligand, BMP agonist (protein, UniProt P12644 293-408, looked up)
Bone morphogenetic protein 4: SPKHHSQRARKKNKNCRRHSLYVDFSDVGWNDWIVAPPGYQAFYCHGDCPFPLADHLNSTNHAIVQTLVNSVNSSIPKACCVPTELSAISMLYLDEYDKVVLKNYQEMVVEGCGCR

Legend:
Type in all cases: cell-based, human
lateral mesoderm = assay: Forelimb versus hindlimb progenitor specification from lateral mesoderm; settings: day 2-3, in the context of BMP and WNT activation
Procedure: Undifferentiated hPSCs (wild-type H7 as well as TBX5-Venus V19-2 H9 hESCs) were maintained in mTeSR1 media on Geltrex-coated plates. As described, they were differentiated into mid primitive streak for 24 hours (D0-1; 30 ng/mL Activin+40 ng/mL BMP4+6 μM CHIR99021+20 ng/mL FGF2+100 nM PIK90) and subsequently differentiated into lateral mesoderm (D1-2; 1 μM A-83-01+30 ng/mL BMP4+1 μM C59), with the inclusion of 50 nM of TTNPB or 2 μM ATRA on D1-2 for trunk lateral mesoderm that was subsequently competent for forelimb differentiation.
Day 2 trunk lateral mesoderm was differentiated into day 3 forelimb progenitors (D2-3; 1 μM A-83-01+1 μM DMH1+3 μM CHIR99021). By contrast, day 2 non-trunk lateral mesoderm was differentiated into day 3 hindlimb progenitors (D2-3; 25 ng/mL Activin+1 μM DMH1+3 μM CHIR99021).

SOX17-mCherry hESCs = assay: Hematopoietic mesoderm and SOX17+CD34+ hemogenic precursor specification
Procedure: SOX17^mCherry/+ H9 hESCs (referred to as SOX17-mCherry hESCs throughout this study) were routinely propagated in mTeSR1 (StemCell Technologies)+1% penicillin/streptomycin. They were passaged ˜1:12-1:25 as fine clumps using Accutase (Gibco) onto plates precoated with a Geltrex substratum (Gibco) in mTeSR1 medium supplemented with thiazovivin ([…]; a ROCK inhibitor). After overnight plating, hESCs were washed (DMEM/F12) and differentiated towards posterior PS using BMP4 (15-40 ng/mL, R&D Systems), CHIR99021 ([…]), FGF2 (20 ng/mL, Invitrogen) and PIK90 (100 nM, Calbiochem) for 24 hours, with the optional inclusion of Activin (30 ng/mL, R&D Systems) to induce mid PS. Day 1 mid or posterior PS was subsequently washed (DMEM/F12) and further differentiated using BMP4 (40 ng/mL), GDC-0941 (0.25-2.5 μM, Cellagen Technology), Forskolin (10 μM, Tocris), SB-505124 ([…]), VEGF (100 ng/mL, R&D Systems), XAV939 (1 μM, Tocris) and ascorbic acid-2-phosphate (200 μg/mL, Sigma) for 24 hours. Day 2 cultures were further directed into the definitive hematopoietic lineage/hemogenic precursors by Activin A (15 ng/mL), GDC-0941 (0.25-2.5 μM), VEGF (100 ng/mL), XAV939 (1 μM) and ascorbic acid-2-phosphate (200 μg/mL) for 24 hours. Day 3 definitive hematopoietic progenitors were subsequently differentiated into early Runx1^lowGfi1^low hemogenic intermediates through day 4-5 treatment with BMP4 (50 ng/mL), TTNPB (500 nM), VEGF (100 ng/mL) and XAV939 (1 μM) for 48 hours, supplemented with SB-505124 (2 μM) on day 5. Day 5 populations were then dissociated into single cells, counted and reaggregated in individual wells of a low-adhesion V-bottom or U-bottom 96-well plate (e.g., Thermo Fisher, catalog no. 249952) with ˜15,000-20,000 cells seeded per well. Aggregates were cultured for 48 additional hours until day 7 in BMP4 (50 ng/mL), TTNPB (500 nM), VEGF (100 ng/mL), XAV939 (1 μM), SB-505124 (2 μM), SCF (25-50 ng/mL, R&D Systems), IL6 (10 ng/mL, R&D Systems) and IL6RA (250-1000 ng/mL, R&D Systems). All differentiation was conducted in serum-free CDM2 fully-defined basal media.

day 6 sclerotome = assay: Sclerotome differentiation towards cartilage
Procedure: Day 6 sclerotome was briefly washed (DMEM/F12) and treated with BMP4 (20 ng/mL) for 72-144 hours, leading to day 9 or day 12 cartilage-like progeny. Media was changed every 24 hours.
hPSC-derived cartilage progeny were stained with safranin-O to assess their production of acidic proteoglycans, which is a key trademark of cartilage phenotypic function. Safranin-O staining was conducted in accord with standard procedures. Namely, hPSC-derived cartilage progeny at day 12 of differentiation (day 6 sclerotome treated with chondrogenic BMP4 for 6 further days) were fixed (with 4% formaldehyde, for 10 minutes at room temperature), washed twice in PBS, briefly treated with 1M acetic acid for 15 seconds, stained with 1% safranin-O solution for 10 minutes, washed with PBS, and wide-field visualization was performed with a dissecting microscope (Leica M205 FA).
FIG. 11: A) To determine the length of time required for sclerotome differentiation, a qPCR timecourse was performed, encompassing undifferentiated hESCs (D0), day 2 hESC-derived paraxial mesoderm (D2 PXM), day 3 hESC-derived early somite progenitors, and hESC-derived day 3 early somite progenitors that were exposed to sclerotome inductive conditions (5 nM 21K+1 μM C59) for 24 or 48 hours. B) Description of EF1α-BCL2-T2A-GFP lentiviral construct (otherwise known as “C306”; top) and FACS plot of a stably-transduced polyclonal H9 hESC line with near-uniform expression of the BCL2-T2A-GFP transgene (green contour) by comparison to uncolored wild-type hESCs (bottom) (see above methods for details of derivation of the H9 BCL2-T2A-GFP hESC line). C) Higher-magnification picture of BCL2-T2A-GFP hESC-derived sclerotome ectopic bone grafts (originally described above in FIG. 4, panel E), showing that despite the near-ubiquitous expression of GFP throughout the ectopic bone graft (indicating its human provenance), the blood vessels are clearly GFP-negative and therefore presumably derived from the mouse host; scale bar=1 mm. […]

Molecule | hindlimb transcription factors TBX4 and PITX1 expression (lateral mesoderm) | downstream ability to acquire hematopoietic fate (SOX17-mCherry hESCs; Activin 30 ng/mL during PS induction) | SOX17+ cells formed by day 3 (SOX17-mCherry hESCs; treatment on day 2-3, 24 hours) | EPIPHYCAN and AGGRECAN expression (timecourse qPCR) (day 6 sclerotome; BMP4 20 ng/mL) | SOX9 expression (timecourse qPCR) (day 6 sclerotome; BMP4 20 ng/mL) | cartilage fate (COL2A1, AGGRECAN, EPIPHYCAN, COMP) (day 6 sclerotome; BMP4 for 3 further days, day 9)
B1 | strongly induced the hindlimb transcription factors TBX4 and PITX1 | significantly enhanced the downstream ability of cells to acquire hematopoietic fate | doubled the generation of SOX17^+ cells |  |  | 
B2 |  |  |  | only upregulated after prolonged BMP treatment | rapidly downregulated | differentiated towards a cartilage fate
